Source: PMC9747329 (ACS chemical biology, 2022)
No end group written: not given here.

How the values were obtained:
nLuc-PTHR1 = target: T1, nLuc-PTHR1 (Homo sapiens, UniProt Q03431); assay type: binding
T1 sequence (Q03431 27-593): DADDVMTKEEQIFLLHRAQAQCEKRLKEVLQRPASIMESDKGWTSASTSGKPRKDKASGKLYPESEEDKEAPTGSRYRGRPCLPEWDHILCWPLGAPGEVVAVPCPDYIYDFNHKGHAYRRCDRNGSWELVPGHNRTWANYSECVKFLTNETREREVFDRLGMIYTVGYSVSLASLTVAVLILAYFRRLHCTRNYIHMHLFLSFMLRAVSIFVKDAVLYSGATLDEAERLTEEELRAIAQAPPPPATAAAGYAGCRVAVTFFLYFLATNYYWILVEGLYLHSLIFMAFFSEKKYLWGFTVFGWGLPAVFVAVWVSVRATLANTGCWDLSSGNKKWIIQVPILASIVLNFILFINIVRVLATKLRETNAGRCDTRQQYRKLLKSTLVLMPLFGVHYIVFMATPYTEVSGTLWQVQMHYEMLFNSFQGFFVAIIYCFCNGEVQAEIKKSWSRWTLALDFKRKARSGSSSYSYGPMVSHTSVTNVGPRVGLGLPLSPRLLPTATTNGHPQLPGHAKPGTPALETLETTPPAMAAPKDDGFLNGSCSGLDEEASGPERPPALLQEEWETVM

[1] = target: nLuc-PTHR1 (human parathyroid hormone receptor-1 with NanoLuc luciferase fused to the N-terminus) (human) (UniProt Q03431); experiment: FRET or BRET
[2] = target: nLuc-ΔECD-PTHR1 (truncated PTHR1 lacking most of the extracellular domain, preceded by NanoLuc luciferase) (human) (UniProt Q03431); experiment: FRET or BRET
WT-PTHR1 = target: T2, WT-PTHR1 (Homo sapiens, UniProt Q03431); experiment: GloSensor cAMP assay in GP2.3 cells; assay type: cell-based
T2 sequence (Q03431 27-593): T1 sequence (Q03431 27-593)

[3] = target: nLuc-PTHR1 (human parathyroid hormone receptor-1 with NanoLuc luciferase fused to the N-terminus) (human) (UniProt Q03431)

| Substance | Kd [1] [nM] | koff [1] [s⁻¹] | kon [1] [M⁻¹ s⁻¹] | cAMP formation (GloSensor): %Emax [3] [%] | cAMP formation (GloSensor): EC50 [3] [nM] | further results |
| --- | --- | --- | --- | --- | --- | --- |
| AVAEIQLMHQRAKWIQDARRRAFLHKLIAEIHTA-NH2 [LA-PTH, reference compound] | – | – | – | – | – | difference in KD between PTH and LA-PTH (nLuc-PTHR1; direct-binding assay, K35^TMR peptides): ~ 5 fold |
| LA-PTH (long-acting PTH), unlabeled (peptide) | – | – | – | – | – | IC50 [1]: 4.1 nM |
| M-PTH(1-14)-15K^TMR (peptide) | 310 | 0.024 | 77000 | – | – | Kd [2]: 106 nM; koff [2]: 0.018 s⁻¹; kon [2]: 180000 M⁻¹ s⁻¹ |
| PTH(1-34)K35^TMR, I5H variant (peptide) | 104 | 0.071 | 440000 | – | – | – |
| PTH(2-34): N-terminally truncated analogue of PTH(1-34) (VSEIQLMHNLGKHLNSMERVEWLRKKLQDVHNF-NH2; UniProt P01270 33-65, looked up, fragment) [reference compound] | – | – | – | – | – | EC50 for cAMP production relative to EC50 of PTH(1-34) (fold higher) (WT-PTHR1; estimated for the D-peptide): ~ 10 fold |
| PTH(3-34): N-terminally truncated analogue of PTH(1-34) (SEIQLMHNLGKHLNSMERVEWLRKKLQDVHNF-NH2; UniProt P01270 34-65, looked up, fragment) [reference compound] | – | – | – | – | – | agonist activity, cAMP production via the PTHR1 (in words) (WT-PTHR1): only minimal activity |
| PTHrP(1-36): N-terminal fragment of parathyroid hormone-related protein, literature comparator [reference compound] | – | – | – | – | – | KD with Ile5 relative to His5 at position 5 (fold lower) (nLuc-PTHR1; pH 7.5, K35^TMR-labeled peptides): ~ 5 fold |
| PTHrP[1-16] PTH[17-34] hybrid, Lys35(TMR) (peptide) | 95 | 0.041 | 430000 | 105 | 0.48 | – |
| PTHrP[1-18] PTH[19-34] hybrid, Lys35(TMR) (peptide) | – | – | – | 99 | 0.16 | – |

Further substances by falling Kd [1], results first:

| Kd [1] [nM] | koff [1] [s⁻¹] | kon [1] [M⁻¹ s⁻¹] | cAMP formation (GloSensor): %Emax [3] [%] | cAMP formation (GloSensor): EC50 [3] [nM] | Substance | further results |
| --- | --- | --- | --- | --- | --- | --- |
| 63 | 0.043 | 680000 | 97 | 0.39 | PTHrP[1-14] PTH[15-34] hybrid, Lys35(TMR) (peptide) | – |
| 49 | 0.029 | 590000 | – | 0.15 | PTHrP[1-12] PTH[13-34] hybrid, Lys35(TMR) (peptide) | – |
| 27 | 0.0094 | 340000 | – | – | PTH(3-34)K35^TMR (peptide) | – |
| 26 | 0.0079 | 320000 | 106 | 0.99 | PTH[1-18] PTHrP[19-36] hybrid, Lys35(TMR) (peptide) | – |
| 21 | 0.0053 | 250000 | – | – | PTH(2-34)K35^TMR (peptide) | – |
| 11 | 0.0043 | – | – | – | PTH(1-34)-N33K^TMR (peptide) | – |
| 6.1 | 0.0022 | 350000 | 106 | 0.89 | PTH[1-14] PTHrP[15-36] hybrid, Lys35(TMR) (peptide) | – |
| 5 | – | – | – | – | PTHrP(1-34)-His5-Ile-K35^TMR (peptide) | – |
| 4.4 | 0.0035 | – | 107 | 0.55 | PTH[1-12] PTHrP[13-36] hybrid, Lys35(TMR) (peptide) | – |
| 3.4 | 0.0017 | 530000 | 103 | 0.79 | PTH[1-16] PTHrP[17-36] hybrid, Lys35(TMR) (peptide) | – |
| 2.4 | 0.00056 | 230000 | – | – | LA-PTH(1-34)-35K^TMR (peptide) | Kd [2]: 72 nM; koff [2]: 0.0097 s⁻¹; kon [2]: 130000 M⁻¹ s⁻¹ |
